Measurements published in patent US20220396813.
Where a chain is given by its changes, count along the chain named.

Assays:
Test in all cases: cell_activity
[1] = system: T1, Rec2 WP_006717173.1 (Aggregatibacter segnis); conditions: HEK293T inversion; background 0.2565; repeat 0.27 vs 0.265
T1 sequence: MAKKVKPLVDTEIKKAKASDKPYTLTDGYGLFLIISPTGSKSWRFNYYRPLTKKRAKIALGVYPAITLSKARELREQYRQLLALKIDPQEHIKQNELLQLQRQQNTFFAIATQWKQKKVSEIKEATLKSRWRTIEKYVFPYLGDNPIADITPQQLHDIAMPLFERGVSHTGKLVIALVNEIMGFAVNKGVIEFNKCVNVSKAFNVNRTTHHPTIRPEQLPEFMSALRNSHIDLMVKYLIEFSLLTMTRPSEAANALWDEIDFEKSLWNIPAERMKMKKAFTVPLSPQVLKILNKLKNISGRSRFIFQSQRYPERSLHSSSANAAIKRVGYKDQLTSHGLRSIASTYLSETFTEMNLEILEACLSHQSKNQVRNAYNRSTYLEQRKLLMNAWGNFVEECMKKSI

[2] = system: T2, Rec3 WP_006718580.1 (Aggregatibacter segnis); conditions: HEK293T inversion; background 0.2565
T2 sequence: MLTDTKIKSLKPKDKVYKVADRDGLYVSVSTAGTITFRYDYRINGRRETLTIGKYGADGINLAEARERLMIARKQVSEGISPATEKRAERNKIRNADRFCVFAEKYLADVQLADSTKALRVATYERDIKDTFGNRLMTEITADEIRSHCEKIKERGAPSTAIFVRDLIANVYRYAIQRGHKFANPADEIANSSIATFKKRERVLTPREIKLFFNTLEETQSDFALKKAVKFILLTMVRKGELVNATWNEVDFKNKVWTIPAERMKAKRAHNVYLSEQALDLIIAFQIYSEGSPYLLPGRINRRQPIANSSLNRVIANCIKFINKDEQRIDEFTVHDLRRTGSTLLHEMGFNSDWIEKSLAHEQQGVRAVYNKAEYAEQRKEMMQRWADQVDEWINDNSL

[3] = system: T3, Rec4 WP_006719234.1 (Aggregatibacter segnis); conditions: HEK293T inversion; background 0.2565
T3 sequence: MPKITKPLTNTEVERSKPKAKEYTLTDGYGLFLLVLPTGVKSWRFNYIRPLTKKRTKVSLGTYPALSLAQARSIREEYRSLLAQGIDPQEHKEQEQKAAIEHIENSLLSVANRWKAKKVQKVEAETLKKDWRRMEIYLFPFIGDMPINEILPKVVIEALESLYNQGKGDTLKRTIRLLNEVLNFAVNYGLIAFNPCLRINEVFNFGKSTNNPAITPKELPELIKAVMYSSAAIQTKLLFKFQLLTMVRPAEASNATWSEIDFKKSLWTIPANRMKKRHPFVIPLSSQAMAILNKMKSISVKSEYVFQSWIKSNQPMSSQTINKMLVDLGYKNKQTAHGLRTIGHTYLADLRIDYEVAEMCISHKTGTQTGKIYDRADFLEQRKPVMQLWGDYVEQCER

[4] = system: T4, Rec5 WP_109859198.1 (Aggregatibacter segnis); conditions: HEK293T inversion; background 0.265
T4 sequence: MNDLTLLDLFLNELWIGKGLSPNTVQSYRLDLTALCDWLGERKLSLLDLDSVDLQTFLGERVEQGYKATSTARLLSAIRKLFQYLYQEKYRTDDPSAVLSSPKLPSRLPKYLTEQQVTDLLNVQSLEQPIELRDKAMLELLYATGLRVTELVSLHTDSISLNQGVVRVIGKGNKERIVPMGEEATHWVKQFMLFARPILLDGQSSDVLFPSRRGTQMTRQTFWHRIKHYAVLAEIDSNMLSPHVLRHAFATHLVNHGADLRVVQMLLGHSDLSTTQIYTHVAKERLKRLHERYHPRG

[5] = system: T5, Rec6 WP_006717195.1 (Aggregatibacter segnis); conditions: HEK293T inversion; background 0.2565
T5 sequence: T4 sequence with G40S, D201N

[6] = system: T6, Rec7 WP_005715799.1 (Aggregatibacter segnis); conditions: HEK293T inversion; background 0.2565
T6 sequence: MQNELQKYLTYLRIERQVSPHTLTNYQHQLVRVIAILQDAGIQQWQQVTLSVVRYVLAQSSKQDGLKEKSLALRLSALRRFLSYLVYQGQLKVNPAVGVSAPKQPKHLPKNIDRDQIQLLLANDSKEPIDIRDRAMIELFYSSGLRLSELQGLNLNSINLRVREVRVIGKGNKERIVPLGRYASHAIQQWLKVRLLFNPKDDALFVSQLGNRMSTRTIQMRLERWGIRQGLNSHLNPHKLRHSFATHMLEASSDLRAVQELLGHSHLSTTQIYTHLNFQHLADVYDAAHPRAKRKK

[7] = system: T7, Rec10 WP_017746151.1 (Scytonema hofmannii); conditions: HEK293T inversion; background 0.264
T7 sequence: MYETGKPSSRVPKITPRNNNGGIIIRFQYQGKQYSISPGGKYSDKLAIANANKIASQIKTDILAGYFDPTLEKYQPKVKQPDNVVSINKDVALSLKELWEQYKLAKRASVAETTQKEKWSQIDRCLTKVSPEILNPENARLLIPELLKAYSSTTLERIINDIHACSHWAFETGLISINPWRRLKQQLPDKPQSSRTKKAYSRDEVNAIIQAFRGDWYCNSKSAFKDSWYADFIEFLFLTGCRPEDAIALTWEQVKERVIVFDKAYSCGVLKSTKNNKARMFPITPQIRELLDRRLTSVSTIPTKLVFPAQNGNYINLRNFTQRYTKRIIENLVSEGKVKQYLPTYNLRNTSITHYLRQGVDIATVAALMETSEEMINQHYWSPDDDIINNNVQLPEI

[8] = system: T8, Rec8 WP_017740000.1 (Scytonema hofmannii); conditions: HEK293T inversion; background 0.264
T8 sequence: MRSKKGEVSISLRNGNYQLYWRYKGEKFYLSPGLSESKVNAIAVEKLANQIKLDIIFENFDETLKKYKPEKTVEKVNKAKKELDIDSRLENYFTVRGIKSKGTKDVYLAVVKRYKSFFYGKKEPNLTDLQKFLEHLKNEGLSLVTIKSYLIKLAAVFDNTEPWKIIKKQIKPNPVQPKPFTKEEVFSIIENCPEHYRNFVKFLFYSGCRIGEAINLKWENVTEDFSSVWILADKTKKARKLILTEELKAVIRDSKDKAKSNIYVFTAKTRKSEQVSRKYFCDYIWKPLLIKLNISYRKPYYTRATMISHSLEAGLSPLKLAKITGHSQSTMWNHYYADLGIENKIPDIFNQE

[9] = system: T9, Rec9 WP_017744257.1 (Scytonema hofmannii); conditions: HEK293T inversion; background 0.264
T9 sequence: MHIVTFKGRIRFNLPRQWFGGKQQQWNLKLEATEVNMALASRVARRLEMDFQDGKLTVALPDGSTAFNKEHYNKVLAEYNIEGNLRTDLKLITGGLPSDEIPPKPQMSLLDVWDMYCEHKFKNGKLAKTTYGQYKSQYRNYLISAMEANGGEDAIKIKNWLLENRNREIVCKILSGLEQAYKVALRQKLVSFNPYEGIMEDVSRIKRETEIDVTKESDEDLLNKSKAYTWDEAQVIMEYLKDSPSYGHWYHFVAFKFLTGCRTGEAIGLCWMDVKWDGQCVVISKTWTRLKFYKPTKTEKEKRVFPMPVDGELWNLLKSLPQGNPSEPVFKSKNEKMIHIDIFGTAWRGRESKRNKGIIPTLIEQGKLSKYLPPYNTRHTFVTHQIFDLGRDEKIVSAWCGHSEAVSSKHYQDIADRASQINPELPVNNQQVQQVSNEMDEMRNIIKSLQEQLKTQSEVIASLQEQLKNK

[10] = system: T10, Rec11 WP_038150996.1 (Veillonella montpellierensis); conditions: HEK293T inversion; background 0.07465
T10 sequence: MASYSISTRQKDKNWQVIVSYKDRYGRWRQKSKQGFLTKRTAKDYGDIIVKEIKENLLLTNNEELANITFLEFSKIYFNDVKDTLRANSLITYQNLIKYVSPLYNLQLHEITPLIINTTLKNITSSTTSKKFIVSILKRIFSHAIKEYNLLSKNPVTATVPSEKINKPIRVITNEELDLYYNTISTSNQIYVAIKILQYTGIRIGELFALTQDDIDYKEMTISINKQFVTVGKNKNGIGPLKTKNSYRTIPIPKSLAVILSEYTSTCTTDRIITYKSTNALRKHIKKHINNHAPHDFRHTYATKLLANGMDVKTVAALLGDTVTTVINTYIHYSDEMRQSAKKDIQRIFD

[11] = system: T11, Rec12 WP_038150898.1 (Veillonella montpellierensis); conditions: HEK293T inversion; background 0.07465
T11 sequence: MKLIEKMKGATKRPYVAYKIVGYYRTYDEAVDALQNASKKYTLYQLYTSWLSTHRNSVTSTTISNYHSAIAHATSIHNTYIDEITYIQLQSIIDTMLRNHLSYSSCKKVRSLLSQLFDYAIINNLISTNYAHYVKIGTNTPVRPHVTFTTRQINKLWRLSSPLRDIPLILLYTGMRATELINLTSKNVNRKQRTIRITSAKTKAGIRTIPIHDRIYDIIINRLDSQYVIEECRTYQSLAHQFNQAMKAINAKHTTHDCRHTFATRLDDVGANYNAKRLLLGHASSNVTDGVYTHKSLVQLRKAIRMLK

[12] = system: T12, Rec23 WP_047824597.1 (Croceicoccus naphthovorans); conditions: HEK293T inversion; background 0.81
T12 sequence: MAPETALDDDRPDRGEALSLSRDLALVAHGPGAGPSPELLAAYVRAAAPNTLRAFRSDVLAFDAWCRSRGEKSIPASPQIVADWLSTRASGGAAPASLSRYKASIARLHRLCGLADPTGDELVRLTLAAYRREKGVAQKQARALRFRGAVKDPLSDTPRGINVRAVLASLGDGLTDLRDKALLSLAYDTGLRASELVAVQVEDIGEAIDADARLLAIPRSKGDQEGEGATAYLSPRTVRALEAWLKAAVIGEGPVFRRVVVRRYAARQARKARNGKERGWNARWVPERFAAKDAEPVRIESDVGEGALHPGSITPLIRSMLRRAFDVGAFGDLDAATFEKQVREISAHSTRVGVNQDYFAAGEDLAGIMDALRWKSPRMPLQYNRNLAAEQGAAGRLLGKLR

[13] = system: T13, Rec27 WP_021170377.1 (Sporomusa sp.); conditions: HEK293T inversion; background 6.51
T13 sequence: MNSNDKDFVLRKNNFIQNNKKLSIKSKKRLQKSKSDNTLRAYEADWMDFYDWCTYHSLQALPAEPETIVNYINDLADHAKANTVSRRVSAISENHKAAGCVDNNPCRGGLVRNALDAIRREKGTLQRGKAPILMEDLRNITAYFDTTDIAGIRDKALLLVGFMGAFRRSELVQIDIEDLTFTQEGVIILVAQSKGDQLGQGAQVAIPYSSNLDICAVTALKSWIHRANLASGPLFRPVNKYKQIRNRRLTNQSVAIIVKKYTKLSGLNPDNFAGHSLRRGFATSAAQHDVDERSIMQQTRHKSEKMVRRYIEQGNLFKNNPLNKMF

[14] = system: T14, Rec13 WP_126045042.1 (Candidatus Aquarickettsia); conditions: HEK293T inversion; background 5.795
T14 sequence: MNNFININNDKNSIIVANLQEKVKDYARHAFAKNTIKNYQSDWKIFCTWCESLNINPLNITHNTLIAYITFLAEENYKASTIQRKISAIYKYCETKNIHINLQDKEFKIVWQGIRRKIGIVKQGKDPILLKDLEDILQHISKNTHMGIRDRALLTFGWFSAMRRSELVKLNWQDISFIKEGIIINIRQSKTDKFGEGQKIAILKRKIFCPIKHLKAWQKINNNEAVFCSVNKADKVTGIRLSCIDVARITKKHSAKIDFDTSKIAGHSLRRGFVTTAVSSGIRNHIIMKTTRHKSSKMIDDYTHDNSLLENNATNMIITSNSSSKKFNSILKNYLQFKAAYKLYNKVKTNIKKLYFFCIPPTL

“AATAAAGGGAATNNNNNNNNATTCCCTTTATT (double strand) [Rec2-7 natural site]” was tested, and the activity [1] was 0.133 % GFP+, the activity [2] was 0.096 % GFP+ and the activity [3] was 0.134 % GFP+. For the same sequence, the activity [4] was 0.195 % GFP+, the activity [5] was 0.135 % GFP+ and the activity [6] was 0.108 % GFP+.
“CAATTTTTGAAANNNNNNNTTTCAAAAATTG (double strand) [Rec8-10 natural site]” gave an activity [7] of 0.168 % GFP+, an activity [8] of 0.165 % GFP+ and an activity [9] of 0.133 % GFP+.
“CACTGATATATANNNNNNNTATATATCAGTG (double strand) [Rec11-12 natural site]” gave an activity [10] of 0.0237 % GFP+ and an activity [11] of 0.031 % GFP+.
“GGACATGTGATANNNNNNNNTATCACATGTTG (double strand) [Rec23 natural site]” showed an activity [12] of 43.3 % GFP+.
With “TAACTAATGATANNNNNNNNNTATCACTAGTTG (double strand) [Rec27 natural site]” the activity [13] was 62.7 % GFP+.
In the case of “TAATGTTCTATANNNNNNNNTATAAAACACTA (double strand) [Rec13 natural site]”, the activity [14] is reported as 4.46 % GFP+.
